Measurements from patent publication US20240307488A1, “ANNEXIN TO INHIBIT BACTERIA” (priority 2023, published 2024).

Assays:
E. coli strain BL21(DE3) = test: dark field light microscopy of antibiotic-driven bacterial filament formation and filament length measurement; format: cell-based
Text: Use of dark field light microscopy to monitor antibiotic-driven bacterial filament formation.
In bright field light microscopy, the filaments formed by bacteria in the presence of beta-lactam antibiotics are difficult to distinguish from “floaters” in the eyes of the microscopist. […] The light micrographs provided herein were all obtained by darkfield light microscopy. […] Therefore, transmission electron microscopy was also used in some cases for visualization of cell ultrastructure.
Darkfield light microscopy of bacterial cultures was performed with a Nikon Labophot microscope (Nikon Instruments, Melville, New York) with a dark field condenser (dry) and an e plan40×/0.65 Nikon objective.
of the inducer IPTG (Isopropyl β-d-1-thiogalactopyranoside). However, protein expression from this plasmid can have significant baseline expression without the inducer. […] Accordingly, all of the imaging and experiments described in this report were performed without adding the inducer, which avoided these problems.
Five ml precultures in LB medium with 200 μg/ml ampicillin were seeded with colonies from LB-ampicillin agar plates and incubated on a rotator overnight at 34 degrees C. […] Slides were rested for 2 to 5 minutes to allow the cells to settle before observation. Nonetheless, the cells were not tightly adherent to the slides and occasionally some cells moved slightly during imaging resulting in a double image. Cultures were checked and micrographs taken at 5 to 20 min intervals for up to 4 hours. Occasionally during this period, the culture tubes were briefly inserted into a Genesys 20 spectrophotometer (Thermospectronic, Rochester, NY) and the absorbance at 600 nm was recorded to measure culture density. The culture tubes have a circular cross section with an inside diameter of 1.3 cm, so the absorbances recorded were approximately 30% higher than would have been measured in a square cuvette with a one cm pathlength.
For preparation of the micrographs in FIGS. 1 through 3 comparing the morphology of the different transformed strains, each test culture (5 ml) was inoculated at the same time with 50 ul of the saturated overnight preculture. For display in the Figures, photographs taken after approximately the same period of growth of each of the parallel cultures were obtained when 20 μl samples provided a microscope image containing a broad sampling of the cell morphologies seen without overcrowding.
The lengths of the bacterial filaments were measured using the Image J program (NIH) with the dark field light micrographs. […] The longest dimension of each cell or filament was taken to represent the “length” for the analysis. Forty to 90 filaments were measured from each of the sub-images in FIGS. 1 and 2.

E. coli BL21(DE3) cells = test: electron microscopy of cells expressing wild type or mutant annexins A4; format: cell-based; conditions: 200 μg/ml ampicillin and 4 μg/ml piperacillin; FIG. 4
Text: E. coli samples selected for ultrastructural analysis were processed for electron microscopy using technical support and instrumentation in the Advanced Microscopy Facility at the University of Virginia School of Medicine. The following reagents for electron microscopy were obtained from Electron Microscopy Sciences (Hatfield, PA): sodium cacodylate, propylene oxide, EPON, uranyl acetate, and lead citrate.
One ml samples of cell cultures were pelleted in a microcentrifuge and resuspended in 2.5% glutaraldehyde in 10 mM phosphate buffer (pH7.4) and held overnight at 4 degrees C. The cells were then washed in 0.1 M sodium cacodylate, 2 times, 10 minutes per wash. Then the samples were completely immersed in 1% osmium tetroxide (OsO4) in 0.1 M sodium cacodylate and incubated at room temperature for 1 hour. Following this incubation, the samples were rinsed in 0.1 M sodium cacodylate, 2 times, 10 minutes per wash. Next samples were dehydrated sequentially in 50%, 70%, 95%, 100% ethanol for at least 10 minutes each. Samples were then rinsed in 1:1 ethanol:propylene oxide and incubated for 10 min in the same mixture, then for 10 min in 100% propylene oxide. Following removal of the final propylene oxide, samples were incubated in a 1:1 propylene oxide:EPON mixture overnight, followed with 1:2 propylene oxide:EPON and 1:4 propylene oxide:EPON, 4 hours each. […]

[1] = tested on: bovine chromaffin granule (secretory vesicle) membrane; conditions: from Nelson and Creutz [17], Table 4; cited from earlier work
[2] = E. coli expressing construct, grown in ampicillin (200 μg/ml), FIG. 1
[3] = ampicillin (200 μg/ml) plus piperacillin (4 μg/ml), FIG. 2

Molecule | propensity to promote the formation of long, stable filaments (E. coli strain BL21(DE3); compared with ampicillin and piperacillin) | relative abundance of short cells and filamentous forms in electron micrographs (E. coli BL21(DE3) cells) | concentration of calcium leading to half-maximal binding to a biological membrane [1] | AVG μm: average length of the measured filaments (E. coli strain BL21(DE3); [2]) | MAX μm: length of the longest filament in the micrograph (E. coli strain BL21(DE3); [2]) | optical density (A600) of the cultures with or without the annexin (E. coli strain BL21(DE3); ampicillin (200 μg/ml)) | promotion of cytokinesis (grouping of constructs) (E. coli strain BL21(DE3); ampicillin (200 μg/ml)) | filament formation (E. coli strain BL21(DE3); ampicillin (200 μg/ml) plus cephalexin (25 μg/ml)) | promotion of cytokinesis (grouping of constructs) (E. coli strain BL21(DE3); ampicillin (200 μg/ml) plus piperacillin (4 μg/ml)) | AVG μm: average length of the measured filaments (E. coli strain BL21(DE3); [3]) | MAX μm: length of the longest filament in the micrograph (E. coli strain BL21(DE3); [3]) | stability of the filaments after tenfold dilution of cephalexin (E. coli strain BL21(DE3); cephalexin reduced from 25 to 2.5 μg/ml after 3 hours 20 minutes, observed for two hours)
CC1=C(C(=O)O)N2C(=O)[C@@H](NC(=O)[C@H](N)c3ccccc3)[C@H]2SC1 [cephalexin, reference compound] | greatest propensity to promote the formation of long, stable filaments |  |  |  |  |  |  |  |  |  |  | 
bovine annexin A4 (protein, UniProt P13214 2-319, looked up) Annexin A4: AAKGGTVKAASGFNAAEDAQTLRKAMKGLGTDEDAIINVLAYRSTAQRQEIRTAYKTTIGRDLMDDLKSELSGNFEQVILGMMTPTVLYDVQELRKAMKGAGTDEGCLIEILASRTPEEIRRINQTYQLQYGRSLEDDIRSDTSFMFQRVLVSLSAGGRDESNYLDDALMRQDAQDLYEAGEKKWGTDEVKFLTVLCSRNRNHLLHVFDEYKRIAQKDIEQSIKSETSGSFEDALLAIVKCMRNKSAYFAERLYKSMKGLGTDDDTLIRVMVSRAEIDMLDIRANFKRLYGKSLYSFIKGDTSGDYRKVLLILCGGDD |  | number of short cells exceeds the number of extended filamentous forms | 5.0×10^−6 M | 5.279 μm | 15.03 μm | similar | promoted cytokinesis | long filamentous cells were formed | promoted cytokinesis | 5.052 μm | 9.472 μm | completely stable
